{"source": "paper doi:10.1101/2025.01.10.632437", "about": "(bioRxiv, 2025)", "proteins": {"B1": {"name": "bovine proton-activated Cl- channel TMEM206/PACC1 without vYFP (conventional purification) (natural protein)", "chain": "not shown"}, "B2": {"name": "bovine TMEM206/PACC1 with C-terminally fused venus-YFP followed by a streptavidin binding peptide tag (natural protein)", "chain": "not shown"}, "B3": {"name": "murine TMEM16F with C-terminal vYFP and SBP-tag (natural protein, mouse)", "chain": "QMMTRKVLLNMELEEDDDEDGDIVLENFDQTIVCPTFGSLENQQDFRTPEFEEFNGKPDSLFFTDGQRRIDFILVYEDESKKENNKKGTNEKQKRKRQAYESNLICHGLQLEATRSVSDDKLVFVKVHAPWEVLCTYAEIMHIKLPLKPNDLKTRSPFGNLNWFTKVLRVNESVIKPEQEFFTAPFEKSRMNDFYILDRDSFFNPATRSRIVYFILSRVKYQVMNNVNKFGINRLVSSGIYKAAFPLHDCRFNYESEDISCPSERYLLYREWAHPRSIYKKQPLDLIRKYYGEKIGIYFAWLGYYTQMLLLAAVVGVACFLYGYLDQDNCTWSKEVCDPDIGGQILMCPQCDRLCPFWRLNITCESSKKLCIFDSFGTLIFAVFMGVWVTLFLEFWKRRQAELEYEWDTVELQQEEQARPEYEAQCNHVVINEITQEEERIPFTTCGKCIRVTLCASAVFFWILLIIASVIGIIVYRLSVFIVFSTTLPKNPNGTDPIQKYLTPQMATSITASIISFIIIMILNTIYEKVAIMITNFELPRTQTDYENSLTMKMFLFQFVNYYSSCFYIAFFKGKFVGYPGDPVYLLGKYRSEECDPGGCLLELTTQLTIIMGGKAIWNNIQEVLLPWVMNLIGRYKRVSGSEKITPRWEQDYHLQPMGKLGLFYEYLEMIIQFGFVTLFVASFPLAPLLALVNNILEIRVDAWKLTTQFRRMVPEKAQDIGAWQPIMQGIAILAVVTNAMIIAFTSDMIPRLVYYWSFSIPPYGDHTYYTMDGYINNTLSVFNITDFKNTDKENPYIGLGNYTLCRYRDFRNPPGHPQEYKHNIYYWHVIAAKLAFIIVMEHIIYSVKFFISYAIPDVSKITKSKIKREKYLTQKLLHESHLKDLTKNMGIIAERIGGTVDNSVRPKLE"}}, "test_in_all_cases": "cryo-EM structure", "key": {"cryo-EM structure [1]": {"biological_target": "the molecule itself"}, "cryo-EM structure [2]": {"biological_target": "the molecule itself", "remark": "listed apart in the source"}, "cryo-EM structure [3]": {"biological_target": "the molecule itself", "remark": "listed apart in the source"}}, "note": "Where two headings read alike, the source gives them in different places.", "data": [{"protein": "B1", "values": [{"measurement": "binding result", "setting": "cryo-EM structure [1]", "value": "binds"}]}, {"protein": "B2", "values": [{"measurement": "binding result", "setting": "cryo-EM structure [2]", "value": "binds"}]}, {"protein": "B3", "values": [{"measurement": "stoichiometry N", "setting": "cryo-EM structure [3]", "value": 2}]}]}
